Experimental data: PMC11092868, “Mapping Novel Frataxin Mitochondrial Networks Through Protein- Protein Interactions” (Research Square, 2024)

B1: Peroxiredoxin 3, endogenous human (natural protein, UniProt P30048 62-256, looked up)
chain: APAVTQHAPYFKGTAVVNGEFKDLSLDDFKGKYLVLFFYPLDFTFVCPTEIVAFSDKANEFHDVNCEVVAVSVDSHFSHLAWINTPRKNGGLGHMNIALLSDLTKQISRDYGVLLEGSGLALRGLFIIDPNGVIKHLSVNDLPVGRSVEETLRLVKAFQYVETHGEVCPANWTPDSPTIKPSPAASKEYFQKVNQ
notes: Peroxiredoxin 3, mitochondrial, human; also called Prdx3; PRDX3; source: endogenous: A549 cells (BioID); human lymphoblast lysate fractions (co-IP); human dermal fibroblast lysate (redox blot)
B2: Peroxiredoxin 3, endogenous mouse (natural protein, UniProt P20108 63-257, looked up)
chain: TPAVTQHAPYFKGTAVVNGEFKELSLDDFKGKYLVLFFYPLDFTFVCPTEIVAFSDKANEFHDVNCEVVAVSVDSHFSHLAWINTPRKNGGLGHMNITLLSDITKQISRDYGVLLESAGIALRGLFIIDPNGVVKHLSVNDLPVGRSVEETLRLVKAFQFVETHGEVCPANWTPESPTIKPSPTASKEYFEKVHQ
notes: Peroxiredoxin 3, mitochondrial, mouse; also called Prdx3; source: endogenous, mouse cerebellum and heart lysates

Target: the molecule itself
Assay: non-reducing SDS-PAGE and immunoblot after NEM alkylation; lysis in alkylation buffer with 100 mM N-ethylmaleimide and 10 ug/mL catalase; oxidized dimers against reduced monomers; with or without beta-mercaptoethanol in Laemmli buffer

Row | Protein | stoichiometry N
1 | B1 | 2
2 | B2 | 2
